In patent EP2009026A1 (ThromboGenics N.V., dated 2008):
Residue numbers refer to the chain shown, from its start.

Tests used:
[1] = target: T1, GST fusion protein of VPAC1 extracellular loop 2 (human); assay: western blotting of GST-loop fusion proteins
T1 construct: also called isolated extracellular loop 2 of the VPAC1 receptor; not shown: GST (glutathione-S-transferase) fusion partner
T1 chain: IHFEDYGCWDTINSSLWW

[2] = target: T2, GST-VPAC1 fusion protein (human VPAC1, full length) (human, UniProt P08515 1-218 = GST); assay: SPR (BIAcore 1000), GST-VPAC1 immobilized on CM5 chip, antibody injected, 1:1 Langmuir fit; second batch
T2 construct: also called recombinant VPAC1

[3] = target: T3, murine VPAC1 receptor on mouse bone marrow-derived CD41/61+ megakaryocytes (mouse, UniProt P97751 31-459); assay: immunoblot of mouse bone marrow-derived megakaryocytes
T3 construct: whole, on cells; Endogenous receptor; It was detected by immunoblot of megakaryocytes and targeted on living megakaryocytes in the cAMP assay; also called VPAC1 receptor on the murine megakaryocytes
T3 sequence (looked up): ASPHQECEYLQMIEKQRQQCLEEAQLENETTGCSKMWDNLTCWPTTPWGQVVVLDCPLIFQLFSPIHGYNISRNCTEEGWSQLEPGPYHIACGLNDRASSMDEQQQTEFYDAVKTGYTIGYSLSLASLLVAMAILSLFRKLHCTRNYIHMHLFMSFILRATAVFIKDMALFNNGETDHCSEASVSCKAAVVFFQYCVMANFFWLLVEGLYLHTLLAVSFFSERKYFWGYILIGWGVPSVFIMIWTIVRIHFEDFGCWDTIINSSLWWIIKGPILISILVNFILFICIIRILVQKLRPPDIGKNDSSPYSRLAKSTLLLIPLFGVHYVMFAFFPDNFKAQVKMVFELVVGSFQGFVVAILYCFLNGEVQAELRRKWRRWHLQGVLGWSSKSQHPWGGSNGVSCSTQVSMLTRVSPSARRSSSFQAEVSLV

[4] = target: T2, GST-VPAC1 fusion protein (human VPAC1, …); assay: SPR (BIAcore 1000), GST-VPAC1 immobilized on CM5 chip, antibody injected, 1:1 Langmuir fit; first batch
[5] = target: T2, GST-VPAC1 fusion protein (human VPAC1, …); assay: SPR (BIAcore 1000), GST-VPAC1 immobilized; KA = 1/KD; second batch
[6] = target: T2, GST-VPAC1 fusion protein (human VPAC1, …); assay: SPR (BIAcore 1000), GST-VPAC1 immobilized; KA = 1/KD; first batch
[7] = target: T4, GST-fused VPAC1 variant 3-2 (amino acids 123-457 of SEQ ID NO:15) (human, UniProt P32241 123-457); assay: western blotting of GST-fused VPAC1 deletion variants
T4 construct: not shown: By analogy w [CUT]
T4 sequence: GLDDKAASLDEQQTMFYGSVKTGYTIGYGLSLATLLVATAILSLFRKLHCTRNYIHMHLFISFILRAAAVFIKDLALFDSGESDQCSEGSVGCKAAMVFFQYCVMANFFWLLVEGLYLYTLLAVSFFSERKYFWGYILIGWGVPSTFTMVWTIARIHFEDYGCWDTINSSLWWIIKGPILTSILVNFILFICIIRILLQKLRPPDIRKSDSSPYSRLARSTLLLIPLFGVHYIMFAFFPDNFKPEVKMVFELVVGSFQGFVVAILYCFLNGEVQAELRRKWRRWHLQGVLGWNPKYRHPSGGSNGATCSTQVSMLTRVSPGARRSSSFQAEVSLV

[8] = target: T5, GST-fused VPAC1 variant 4-2 (amino acids 231-457 of SEQ ID NO:15) (human, UniProt P32241 231-457); assay: as above
T5 construct: not shown: By analogy w [CUT]
T5 sequence: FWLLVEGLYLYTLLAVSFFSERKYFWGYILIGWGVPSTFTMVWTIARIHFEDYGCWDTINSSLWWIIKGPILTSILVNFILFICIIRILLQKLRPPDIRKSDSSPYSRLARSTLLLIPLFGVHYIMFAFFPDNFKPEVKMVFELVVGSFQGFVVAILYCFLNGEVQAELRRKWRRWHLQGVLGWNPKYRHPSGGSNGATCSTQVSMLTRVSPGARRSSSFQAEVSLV

[9] = target: T2, GST-VPAC1 fusion protein (human VPAC1, …); assay: SPR (BIAcore 1000), GST-VPAC1 immobilized on CM5 chip, antibody injected, 1:1 Langmuir fit
[10] = target: T2, GST-VPAC1 fusion protein (human VPAC1, …); assay: SPR (BIAcore 1000), GST-VPAC1 immobilized; KA = 1/KD

B1: murine monoclonal anti-VPAC1 antibody 23A11 (antibody, V domains shown)
VH: EVQLQESGPSLVKPSQTLSLTCSVTGDSITSGYWNWIRKFPGNKLEYMGYIRYSGSTYYSPALKSRFSITRDTSKNQYYLQLNSVTTEDTATYYCSNWAYWGQGTLVTVSA
VL: DIVITQDELSNPVTSGESVSISCRSSKSLLYKDGKTYLNWFLQRPGQSPQLLIYLMSTRASGVSDRFSGSGSGTDFTLEISRVKAEDVGVYYCQQLVEYPLTFGAGTKLELK
notes: Murine hybridoma antibody (BALB/c mice); also called murine 23A11; anti-VPAC1 receptor antibody 23A11
With B1 the binding result [1] was “binds”, the Kd [2] was 19.9 nM and the binding result [3] was “binds”. For the same binder, the Kd [4] was 28.3 nM, the Ka [5] was 5.04e+07 M⁻¹ and the Ka [6] was 3.54e+07 M⁻¹. B1: binds [7]; binds [8].

B2: humanized 23A11 antibody (isotype not stated in Example 8) (antibody, V domains shown)
VH: EVQLQESGPGLVKPSQTLSLTCTVSGDSITSGYWNWIRKHPGKGLEYMGYIRYSGSTYYSPSLKSRFTISRDTSKNQYSLKLSSVTAADTATYYCSNWAYWGQGTLVTVSA
VL: B1 VL with D7S, E8P, N11L, S15P, S18P, E79K, K84E, A105Q, L111I
notes: The constant regions are human IgG1 or IgG4; also called humanize 23A11 antibody; rhu23A11
B2 was tested, and the Kd [9] was 9.82 nM and the Ka [10] was 1.02e+08 M⁻¹.
